Positions count from the first letter of the chain named.
B1: g28v2-D38-1_CLK19 (antibody, V domains shown)
VH: QVQLVQSGAEVKKPGASVKVSCKASGYTFTGHHMHWVRQAPGQGLEWLGWINPRGGGTNYAQKFQGRVTMTRDTSISTAYMDLSRLRSDDTAVYYCTPVLATFRWRFDYWGQGTLVTVSS
VL: DIQMTQSPSSLSASVGDRVTFTCQASQDISNFLNWYQQKPGKAPKLLIYDTSNLEAGVPSRFSGGGSGTDFTFTISSLQPEDVATYYCQQYATFGPGTKVDIK
B2: g28v2-D38-2_CLK19 (antibody, V domains shown)
VH: QVQLVQSGAEVKKPGASVKVSCKASGYTFTDYYLHWVRQAPGQGLEWMGWINPIFGAPNYARKFQGRVTMTRDTSISTAYMELSRLNSDDTAVYYCTHVLATYRWRFDHWGQGTLVTVSS
VL: B1 VL with S30G, E55G, G65S, V83I
B3: g28v2-D38-10_CLK19 (antibody, V domains shown)
VH: QVQLVQSGAEVKKPGASVKVSCKASGYTFTGYYIHWVRQAPGQGLEWMGWINPNSGGTNYPQKFQGRVTMTRDTSISTAYMELSRLRSDDTAVYYCALWFGEKWTFDIWGQGTMVTVSS
VL: DIQMTQSPSSLSASVGDRVTITCQASQDIGNYLNWYHQRPGKAPKLLIYDASNLETGVPSRFSGSGSGPDSTFTISTLQPEDIGTYYCQQYDTFGPGTKVDIK
B4: g28-D78-1_CLK09 (antibody, V domains shown)
VH: QVQLVQSGAEVKKPGASVKVSCKTSGYTFTAYYVHWVRQAPGQGLEWMGWINPTNGATNYAQIFQGRVTMTRDTSISTAYMELNRLRSDDTAVYYCARVGGLWAFDIWGQGTIVTVSS
VL: DIQMTQSPSSLSASVGDRVTITCQTSQHITRNLNWYQQKPGKAPKLLISDAYNLKIGVPSRFSGSGSGTDFTFTISSLQPEDVATYYCQQYEFFGGGTEVEIK
B5: g28-D78-19_CLK09 (antibody, V domains shown)
VH: B4 VH
VL: B4 VL with T25A
B6: g28-D78-14_CLK09 (antibody, V domains shown)
VH: QVQLVQSGAEVKKPGASVRVSCKASGYTFTGNYIHWVRQAPGQGLEWMGWLNPINGGTNHAQKFQGRVTMTRDTSISTAYMELSRLRSDDTTVYYCARVGGLWFGKGWTFDIWGQGTMVTVSS
VL: DIQMTQSPSSLSASVGDRVTITCQASQDISILNWYQQKPGKAPKLLIYGASNLETGVPSRFSGSGSGTDFTLTISSLQPEDIATYYCQQYEFFGGGTKVAIK
B7: g28-D78-21_CLK09 (antibody, V domains shown)
VH: QLQESGAEVKKPGASVRVSCKASGYTFTGNYIHWVRQAPGQGLEWMGWVNPINGGTNHAQKFQGRVTMTRDTSISTAYMELSRLRSDDTTVYYCARVGGLWFGKGWTFDIWGQGTMVTVSS
VL: B6 VL with L72F, A100R
B8: g28-D78-17_CLK09 (antibody, V domains shown)
VH: B6 VH with F104L
VL: B6 VL with L72F, A100E
B9: g28-D78-9_CLK09 (antibody, V domains shown)
VH: B6 VH with F104S
VL: B6 VL with L72F, A100E
B10: g28-D78-7_CLK09 (antibody, V domains shown)
VH: B6 VH with S77N, R87K, F104S
VL: B6 VL with L72F, A100E
B11: g28-D78-10_CLK09 (antibody, V domains shown)
VH: QLQLVQSGADVKKPGASVKVSCKASGYTFTGYFIHWVRQAPGQGLEWMGWLNPIYGGVNYARNFQGRVTMTRDTSISTAYLELRRLKSDDTAVYYCARVAERMIFDVWGQGTMVTVSS
VL: DIQMTQSPSSLSASVGDRVTIACQASQDINNYVNWYQQKPGKAPKLLIYDASNLETGVPSRFSGSGSGTDFTFTISSLQPEDIATYYCQQYEFFGGGTKVEIK
B12: g28-D78-18_CLK09 (antibody, V domains shown)
VH: B3 VH with G31D, Y33H, I51V, N54Y, S55H, P61A, K63I, W104K
VL: B11 VL with A22T, D28G, N30S, Y32F, V33L, Y36F, A51V
B13: g28v2-D38-5_CLK19 (antibody, V domains shown)
VH: QVQLVQSGAEVKKPGASVKVSCKASGYTFIDYYIHWVRQAPGQGLEWMGWINPYHGGTNCAQKFQDRVTMTRDTSISTAYLEMSRLRSDDTAVFFCVIALAGHGWRFDYWGQGTQVTVSS
VL: B1 VL with F21I, S30N, F32Y, A56T, G65S, V83I, T93A
B14: g28-D78-12_CLK09 (antibody, V domains shown)
VH: B11 VH with A9T, D10E, R84K, T91A
VL: B11 VL
B15: g28-D78-13_CLK09 (antibody, V domains shown)
VH: B11 VH with D10E, R84K
VL: B11 VL
B16: g28-D78-2_CLK09 (antibody, V domains shown)
VH: B11 VH with D10E, R84K
VL: B11 VL with G66R, E101R
B17: g28-D78-8_CLK09 (antibody, V domains shown)
VH: B11 VH with D10E, G26R, G66D
VL: B11 VL with N30S, E101R
B18: g28-D78-11_CLK09 (antibody, V domains shown)
VH: B11 VH with G66D
VL: B11 VL with A25S, D28G
B19: g28-D78-4_CLK09 (antibody, V domains shown)
VH: B11 VH with D10E, V37I, R84K
VL: B11 VL
B20: g28v2-D38-4_CLK09 (antibody, V domains shown)
VH: QVQLVQSGAEVKKPGASVKVSCKASGYTFTDYFLHWVRQAPGQGLEWMGWINPTGGGVNYAQQFQGRVTLTRDTSISTAYMELTRLRSDDTAVYYCTPVLATFRWRFDYWGQGTLVTVSS
VL: B11 VL with A22T, N30S, V33L, A51V, E55G
B21: g28-D78-20_CLK09 (antibody, V domains shown)
VH: B11 VH with D10E, G66D
VL: B11 VL
B22: g28-D78-6_CLK09 (antibody, V domains shown)
VH: B11 VH with G66D
VL: B11 VL with A22V, G66R
B23: g28-D78-16_CLK09 (antibody, V domains shown)
VH: B3 VH with Y33H, I51V, N54Y, S55H, P61A, K63I, W104K
VL: B11 VL with A22T, D28G, N30S, Y32F, V33L, Y36F, A51V
B24: g28-D78-15_CLK09 (antibody, V domains shown)
VH: B11 VH with K13T, G31S, G57A, G66D
VL: B11 VL
B25: g28-D78-3_CLK09 (antibody, V domains shown)
VH: B11 VH with D10E, V37I, R84K
VL: B11 VL with E101R
B26: g28-D78-5_CLK09 (antibody, V domains shown)
VH: B11 VH with D10E, G66D
VL: B11 VL with N30S
B27: g28v2-D38-3_CLK19 (antibody, V domains shown)
VH: B1 VH with H32Y, H33F, L48M, R54H, G55F, G57A, D82E, T91W
VL: B11 VL with A22S, V33L, A51T, E92D, F93T, G96P, E101D
B28: g28v2-D38-11_CLK19 (antibody, V domains shown)
VH: QVQLVQSGAEVKKPGASVKVSCKASGYTFTGYYMHWVRQAPGQGLEWMGWINPNSGGTNYAQIFQDRVTMTRDTSISTAYLELSRLRSDDTAVYYCTRVDGVWSFDIWGQGTMVTVSS
VL: B1 VL with D1N, F21I, F32Y, L46I, T51A, A56T, G65S, V83I, A92D

Target: eOD-GT8 (monomeric ligand) (Human immunodeficiency virus 1, …)

Binder | Kd
B1 | 6.29 nM
B2 | 3710 nM
B3 | 0.0433 nM
B4 | 7.1 nM
B5 | 8.8 nM
B6 | 0.29 nM
B7 | 0.87 nM
B8 | 0.25 nM
B9 | 0.19 nM
B10 | 0.2 nM
B11 | 11 nM
B12 | 82 nM
B13 | 4.43 nM
B14 | 11 nM
B15 | 11 nM
B16 | 15 nM
B17 | 8 nM
B18 | 9 nM
B19 | 6.5 nM
B20 | 0.177 nM
B21 | 6.8 nM
B22 | 7.6 nM
B23 | 130 nM
B24 | 160 nM
B25 | 7.1 nM
B26 | 6 nM
B27 | 105 nM
B28 | 0.0422 nM
